The values that follow come from PMC9181312.

This experiment has as its target Human ACE2-hIgG1Fc (human) (UniProt Q9BYF1). Put plainly: SPR. Background: SPR reads the build-up and loss of mass on a sensor chip optically.

Human ACE2-hIgG1Fc (human), sequence (Q9BYF1 18-740): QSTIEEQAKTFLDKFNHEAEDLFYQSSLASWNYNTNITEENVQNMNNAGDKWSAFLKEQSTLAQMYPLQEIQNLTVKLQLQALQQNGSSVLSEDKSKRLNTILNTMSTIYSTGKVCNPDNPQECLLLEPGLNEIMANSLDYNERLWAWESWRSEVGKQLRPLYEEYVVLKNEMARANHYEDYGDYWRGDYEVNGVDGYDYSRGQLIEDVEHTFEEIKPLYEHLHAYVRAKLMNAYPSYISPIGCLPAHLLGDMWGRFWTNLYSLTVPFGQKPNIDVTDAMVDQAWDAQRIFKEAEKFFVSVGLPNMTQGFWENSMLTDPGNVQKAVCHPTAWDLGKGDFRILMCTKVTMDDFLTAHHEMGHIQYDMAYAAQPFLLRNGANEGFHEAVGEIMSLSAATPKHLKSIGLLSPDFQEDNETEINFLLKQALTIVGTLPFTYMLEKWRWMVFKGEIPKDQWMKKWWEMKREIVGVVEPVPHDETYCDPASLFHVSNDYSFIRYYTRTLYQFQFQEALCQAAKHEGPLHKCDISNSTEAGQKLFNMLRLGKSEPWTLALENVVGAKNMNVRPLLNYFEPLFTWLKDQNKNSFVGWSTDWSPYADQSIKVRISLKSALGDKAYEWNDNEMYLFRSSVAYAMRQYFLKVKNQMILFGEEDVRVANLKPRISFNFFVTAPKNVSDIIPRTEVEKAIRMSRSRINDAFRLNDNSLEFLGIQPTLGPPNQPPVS

The Kd is a measure of binding affinity in units of concentration. A lower Kd goes with higher affinity. As usually defined, the koff is a measure of how fast the partners let go of each other. The substance Wuhan RBD returned a Kd of 7.3 nM and a koff of 0.0051 s⁻¹.
